In US20200024322A1 (Eli Lilly, published 2020):
Positions count from the first letter of the chain named. Numbered stars: 1 amine (or outer) side, 2 acyl side, 3 side chain; on linkers, the order of the positions; unused ones are H or OH. Square brackets hold non-standard residues; d marks the D form. Side chains are listed from the residue outwards. Ends that are not written are not given here. * marks the point of attachment. C20 diacid = O=C(O)CCCCCCCCCCCCCCCCCCC(=O)*; C18 diacid = O=C(O)CCCCCCCCCCCCCCCCC(=O)*; γGlu = O=C(O)[C@H](CCC(=O)[*:2])N[*:1]; AEEA = NCCOCCOCC(=O)O; Aib = CC(C)(N)C(=O)O

T1: human GIP receptor (human, UniProt P48546 22-466)
T1 construct: whole, on cells; also called hGIPR; hGIP-R
T1 sequence (looked up): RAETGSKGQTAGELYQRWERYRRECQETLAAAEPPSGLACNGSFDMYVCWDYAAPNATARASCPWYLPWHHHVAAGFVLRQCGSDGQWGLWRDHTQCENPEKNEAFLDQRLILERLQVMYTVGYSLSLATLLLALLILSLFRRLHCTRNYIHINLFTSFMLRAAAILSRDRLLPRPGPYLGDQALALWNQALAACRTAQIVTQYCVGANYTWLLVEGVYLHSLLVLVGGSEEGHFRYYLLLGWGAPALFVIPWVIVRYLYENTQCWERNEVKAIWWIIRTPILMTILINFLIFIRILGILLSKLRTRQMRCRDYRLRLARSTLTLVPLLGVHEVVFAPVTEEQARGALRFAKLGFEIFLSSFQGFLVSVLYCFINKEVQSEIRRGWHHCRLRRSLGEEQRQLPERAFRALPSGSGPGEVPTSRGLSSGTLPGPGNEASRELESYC

B1: Example 324 (peptide)
peptide: YXEGTFTSDYSIXLDKKAQXAFIEYLIAGGPSSGAPPPS
modifications: Aib2; αMeL13; K17((2-[2-(2-Amino-ethoxy)-ethoxy]-acetyl)2-(γ-Glu)-CO-(CH2)18-CO2H); Aib20; C-terminal NH2
B2: Example 327 (peptide)
peptide: B1 peptide with Y1F, A28E
modifications: Aib2; αMeL13; K17((2-[2-(2-Amino-ethoxy)-ethoxy]-acetyl)2-(γ-Glu)-CO-(CH2)18-CO2H); Aib20; C-terminal NH2
B3: Example 323 (peptide)
peptide: B1 peptide with K16E, A28E
modifications: Aib2; αMeL13; K17((2-[2-(2-Amino-ethoxy)-ethoxy]-acetyl)2-(γ-Glu)-CO-(CH2)16-CO2H); Aib20; C-terminal NH2
B4: Example 333 (peptide)
peptide: B1 peptide with A21E, A28E
modifications: Aib2; αMeL13; K17((2-[2-(2-Amino-ethoxy)-ethoxy]-acetyl)2-(γ-Glu)-CO-(CH2)18-CO2H); Aib20; C-terminal NH2
B5: Example 332 (peptide)
peptide: B1 peptide with K16E
modifications: Aib2; αMeL13; K17((2-[2-(2-Amino-ethoxy)-ethoxy]-acetyl)2-(γ-Glu)-CO-(CH2)18-CO2H); Aib20; C-terminal NH2
B6: Example 273 (peptide)
peptide: Y[Aib]EGTFTSDYSILLDKK([AEEA-AEEA-γGlu-C18 diacid])AQ[Aib]AFIEYLIAGG-NH2
modifications: N-terminus assumed
SMILES: CC[C@H](C)[C@H](NC(=O)[C@H](CC(C)C)NC(=O)[C@H](Cc1ccc(O)cc1)NC(=O)[C@H](CCC(=O)O)NC(=O)[C@@H](NC(=O)[C@H](Cc1ccccc1)NC(=O)[C@H](C)NC(=O)C(C)(C)NC(=O)[C@H](CCC(N)=O)NC(=O)[C@H](C)NC(=O)[C@H](CCCCNC(=O)COCCOCCNC(=O)COCCOCCNC(=O)CC[C@H](NC(=O)CCCCCCCCCCCCCCCCC(=O)O)C(=O)O)NC(=O)[C@H](CCCCN)NC(=O)[C@H](CC(=O)O)NC(=O)[C@H](CC(C)C)NC(=O)[C@H](CC(C)C)NC(=O)[C@@H](NC(=O)[C@H](CO)NC(=O)[C@H](Cc1ccc(O)cc1)NC(=O)[C@H](CC(=O)O)NC(=O)[C@H](CO)NC(=O)[C@@H](NC(=O)[C@H](Cc1ccccc1)NC(=O)[C@@H](NC(=O)CNC(=O)[C@H](CCC(=O)O)NC(=O)C(C)(C)NC(=O)[C@@H](N)Cc1ccc(O)cc1)[C@@H](C)O)[C@@H](C)O)[C@@H](C)CC)[C@@H](C)CC)C(=O)N[C@@H](C)C(=O)NCC(=O)NCC(N)=O
B7: Example 288 (peptide)
peptide: Y[Aib]EGTFTSDYSILLDKK([AEEA-AEEA-γGlu-C20 diacid])AQ[Aib]AFIEYLIAGGPSSGAPPPS-NH2
modifications: N-terminus assumed
SMILES: CC[C@H](C)[C@H](NC(=O)[C@H](CC(C)C)NC(=O)[C@H](Cc1ccc(O)cc1)NC(=O)[C@H](CCC(=O)O)NC(=O)[C@@H](NC(=O)[C@H](Cc1ccccc1)NC(=O)[C@H](C)NC(=O)C(C)(C)NC(=O)[C@H](CCC(N)=O)NC(=O)[C@H](C)NC(=O)[C@H](CCCCNC(=O)COCCOCCNC(=O)COCCOCCNC(=O)CC[C@H](NC(=O)CCCCCCCCCCCCCCCCCCC(=O)O)C(=O)O)NC(=O)[C@H](CCCCN)NC(=O)[C@H](CC(=O)O)NC(=O)[C@H](CC(C)C)NC(=O)[C@H](CC(C)C)NC(=O)[C@@H](NC(=O)[C@H](CO)NC(=O)[C@H](Cc1ccc(O)cc1)NC(=O)[C@H](CC(=O)O)NC(=O)[C@H](CO)NC(=O)[C@@H](NC(=O)[C@H](Cc1ccccc1)NC(=O)[C@@H](NC(=O)CNC(=O)[C@H](CCC(=O)O)NC(=O)C(C)(C)NC(=O)[C@@H](N)Cc1ccc(O)cc1)[C@@H](C)O)[C@@H](C)O)[C@@H](C)CC)[C@@H](C)CC)C(=O)N[C@@H](C)C(=O)NCC(=O)NCC(=O)N1CCC[C@H]1C(=O)N[C@@H](CO)C(=O)N[C@@H](CO)C(=O)NCC(=O)N[C@@H](C)C(=O)N1CCC[C@H]1C(=O)N1CCC[C@H]1C(=O)N1CCC[C@H]1C(=O)N[C@@H](CO)C(N)=O
notes: also called GG-709

These binders were tested against T1, human GIP receptor (assay: [125I]-GIP competition SPA, hGIPR membranes).
B1 gave a Ki of 0.0278 nM. B2 was tested, and the Ki was 0.0667 nM. Work on B3 yielded a Ki of 0.0516 nM. With B4 the Ki was 0.0634 nM. Work on B5 yielded a Ki of 0.0497 nM. In the case of B6, the Ki is reported as 0.0698 nM. Work on B7 yielded a Ki of 0.058 nM. In the case of F[Aib]EGTFTSDYSILLDKK([AEEA-AEEA-γGlu-C20 diacid])AQ[Aib]AFIEYLIEGGPSSGAPPPS-NH2 [Example 326], the Ki is reported as 0.251 nM.

Each binder was assayed against T2, human GLP-1 receptor (human, UniProt P43220 24-463) (assay: [125I]-GLP-1 competition SPA, hGLP-1R membranes).
T2 construct: whole, on cells; also called hGLP-1R; hGLP1R
Procedure, shortened: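 Kᵢ values are geometric means (SEM) over replicates run on separate days, derived from IC₅₀ of four-parameter curve fits. Buffer: HEPES 25 mM pH 7.4 with CaCl₂ 2.5 mM, MgCl₂ 1 mM, bacitracin 0.1%, TWEEN-20 0.003%, EDTA-free protease inhibitors.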
Binder B1 has a Ki of 0.609 nM. With B2 the Ki was 2.1 nM. B3 showed a Ki of 1.65 nM. B4 was tested, and the Ki was 4.25 nM. With B5 the Ki was 7.87 nM. B6 gave a Ki of 1.13 nM. With B7 the Ki was 1.6 nM. F[Aib]EGTFTSDYSILLDKK([AEEA-AEEA-γGlu-C20 diacid])AQ[Aib]AFIEYLIEGGPSSGAPPPS-NH2 [Example 326] gave a Ki of 2.92 nM.

The binders below were run against T3, human glucagon receptor (human, UniProt P47871 26-477) (assay: [125I]-Gcg competition SPA, hGcgR membranes).
T3 construct: whole, on cells; also called hGcgR; GcgR
T3 sequence (P47871 26-477): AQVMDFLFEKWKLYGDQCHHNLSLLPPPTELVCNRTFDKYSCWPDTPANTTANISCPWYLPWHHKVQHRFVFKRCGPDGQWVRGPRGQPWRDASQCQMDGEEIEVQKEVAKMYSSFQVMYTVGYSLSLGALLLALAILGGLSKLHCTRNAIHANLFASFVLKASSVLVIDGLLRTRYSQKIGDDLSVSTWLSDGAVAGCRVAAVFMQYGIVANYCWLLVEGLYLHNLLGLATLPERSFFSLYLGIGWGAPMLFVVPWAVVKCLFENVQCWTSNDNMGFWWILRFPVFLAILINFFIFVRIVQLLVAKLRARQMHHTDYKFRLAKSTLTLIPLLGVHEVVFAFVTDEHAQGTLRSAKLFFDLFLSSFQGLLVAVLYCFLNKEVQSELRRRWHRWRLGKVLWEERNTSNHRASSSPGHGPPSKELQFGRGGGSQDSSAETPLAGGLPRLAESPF
For B1, the Ki was 449 nM. With B2 the Ki was 114 nM. Work on B3 yielded a Ki of 300 nM. Work on B4 yielded a Ki of 578 nM. In the case of B5, the Ki is reported as 397 nM. For B6, the Ki was 724 nM. With B7 the Ki was 345 nM. In the case of F[Aib]EGTFTSDYSILLDKK([AEEA-AEEA-γGlu-C20 diacid])AQ[Aib]AFIEYLIEGGPSSGAPPPS-NH2 [Example 326], the Ki is reported as 207 nM.
